Broadly, the Ki is the equilibrium dissociation constant of an inhibitor or competing ligand from its target. A lower Ki goes with tighter binding. By Kd is commonly meant a measure of binding affinity in units of concentration. Read a low Kd as tighter binding.

For 10 molecules, Ki and Kd results are on record in article PMC7376575 (The Biochemical journal, 2020).

Substitutions are numbered along the chain they refer to.

Experiment [1] has as its target T1, catalytic domain of MMP-1 (UniProt P03956 106-261).
T1 sequence: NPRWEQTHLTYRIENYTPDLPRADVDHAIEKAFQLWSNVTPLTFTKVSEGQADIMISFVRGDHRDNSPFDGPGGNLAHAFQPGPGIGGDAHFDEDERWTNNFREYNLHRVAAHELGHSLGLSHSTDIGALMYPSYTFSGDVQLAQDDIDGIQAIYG
Nature of the experiment: enzyme inhibition assay.

Experiment [2] addresses catalytic domain of MMP-3 (UniProt P08254 100-272). Nature of the experiment: enzyme inhibition assay.
For experiment [3], the target named is catalytic domain of MMP-14 (UniProt P50281 112-292). Kind of experiment: enzyme inhibition assay.
Experiment [4] deals with T2, biotinylated catalytic domain of MMP-1 (UniProt P03956 106-261, biotin on Lys residues).
T2 sequence: T1 sequence
Kind of experiment: flow cytometry on cells.

Experiment [5] has as its target biotinylated catalytic domain of MMP-14 (UniProt P50281 112-292, biotin on Lys residues (EZ-Link sulfo-NHS-LC-LC-biotin)). Nature of the experiment: flow cytometry on cells. A general note: In flow cytometry, cells or beads pass a laser one at a time.
Experiment [6] deals with biotinylated catalytic domain of MMP-3 (UniProt P08254 100-272, biotin on Lys residues). Nature of the experiment: flow cytometry on cells.
Chain of biotinylated catalytic domain of MMP-3 (P08254 100-272): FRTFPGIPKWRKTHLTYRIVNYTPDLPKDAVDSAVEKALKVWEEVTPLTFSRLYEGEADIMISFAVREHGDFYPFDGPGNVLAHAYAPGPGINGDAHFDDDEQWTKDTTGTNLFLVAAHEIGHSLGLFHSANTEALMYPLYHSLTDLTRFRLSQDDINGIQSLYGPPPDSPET

Chain of catalytic domain of MMP-3 (P08254 100-272): as above

B1: N-TIMP2 V71R (domain or fragment)
chain: CSCSPVHPQQAFCNADVVIRAKAVSEKEVDSGNDIYGNPIKRIQYEIKQIKMFKGPEKDIEFIYTAPSSARCGVSLDVGGKKEYLIAGKAEGDGKMHITLCDFIVPWDTLSTTQKKSLNHRYQMGCE
modifications: native disulfides
As to B1, the values for the Ki in experiment [1] and in experiment [2] were 5.59 nM and 86.2 nM, respectively.

B2: N-terminal domain of the tissue inhibitor of metalloproteinase 2, wild type (domain or fragment)
chain: B1 chain with R71V
B2 had an inhibition constant Ki in experiment [2] of 1.34 nM.

B3: N-TIMP2 T99G (domain or fragment)
chain: B1 chain with R71V, T99G
modifications: native disulfides
For B3, the results for the Ki in experiment [3], in experiment [1] and in experiment [2] were 0.534 nM, 0.08 nM and 4.24 nM, respectively.

B4: N-TIMP2 T99M (domain or fragment)
chain: B1 chain with R71V, T99M
modifications: native disulfides
In the case of B4, the Ki was determined as 2.05 nM in experiment [3], 0.085 nM in experiment [1] and 8.29 nM in experiment [2].

B5: N-TIMP2 S68M (domain or fragment)
chain: B1 chain with S68M, R71V
modifications: native disulfides
Consider B5, for which the Ki in experiment [3] was 2.6 nM; in experiment [1], 0.181 nM; in experiment [2], 3.29 nM.

B6: N-TIMP2 T99Q (domain or fragment)
chain: B1 chain with R71V, T99Q
modifications: native disulfides
In the case of B6, the Ki in experiment [3] came out at 3.92 nM; in experiment [1], 0.099 nM; in experiment [2] it was 3.72 nM.

B7: N-TIMP2 H97R (domain or fragment)
chain: B1 chain with R71V, H97R
modifications: native disulfides
As for B7, the values for the Ki in experiment [3], in experiment [1] and in experiment [2] were 0.125 nM, 0.031 nM and 1.31 nM, respectively.

B8: N-TIMP2 V71W (domain or fragment)
chain: B1 chain with R71W
modifications: native disulfides
With B8, the Ki in experiment [3] stood at 34.3 nM; in experiment [1] it was 2.99 nM; in experiment [2], 26.4 nM.

B9: yeast-displayed N-TIMP2WT (domain or fragment)
chain: B1 chain with R71V
For the molecule B9, the figures for the Kd in experiment [4], in experiment [5] and in experiment [6] were 3.22 nM, 48.2 nM and 36.2 nM, respectively.

B10: N-TIMP2 S68E (domain or fragment)
chain: B1 chain with S68E, R71V
modifications: native disulfides
As for B10, the Ki in experiment [3] came out at 1.42 nM; in experiment [1], 0.249 nM; in experiment [2] it was 4.71 nM.
